According to US20250304651A1 (ACADEMISCH ZIEKENHUIS LEIDEN H O D N LEIDS UNIVERSITAIR …, published 2025):

T1: ΔNPM1 (mutant NPM1; dNPM1) peptide on HLA-A*03:01 (human)
T1 peptide: AVEEVSLRK

T2: ΔNPM1 (mutant NPM1; dNPM1) peptide on HLA-A*11:01 (human)
T2 peptide: AVEEVSLRK

T3: ΔNPM1 (mutant NPM1; dNPM1) peptide on HLA-A*03:01 (human)
T3 peptide: CLAVEEVSLRK


Tests used:
[1] = molecular target: HLA-A*02:01 (recombinant heavy chain with human β2-microglobulin, monomer) (human); experiment: monomer refolding
[2] = molecular target: T4, HLA-A*03:01 (monomer for refolding) (human); experiment: monomer refolding
T4 construct: Monomer production is described in detail only for HLA-A*02:01

[3] = molecular target: T5, HLA-A*11:01 (monomer for refolding) (human); experiment: monomer refolding
T5 construct: Monomer production is described in detail only for HLA-A*02:01

[4] = molecular target: T1, ΔNPM1 (mutant NPM1; dNPM1) peptide on …; experiment: cytokine release
[5] = molecular target: T2, ΔNPM1 (mutant NPM1; dNPM1) peptide on …; experiment: multimer staining
[6] = molecular target: T2, ΔNPM1 (mutant NPM1; dNPM1) peptide on …; experiment: cytokine release
[7] = molecular target: T1, ΔNPM1 (mutant NPM1; dNPM1) peptide on …; experiment: multimer staining
[8] = molecular target: T3, ΔNPM1 (mutant NPM1; dNPM1) peptide on …; experiment: multimer staining
[9] = molecular target: T6, HLA-A*01:01 (monomer for refolding) (human); experiment: monomer folding for tetramer production
T6 construct: Monomer production is described in detail only for HLA-A*02:01

binding result [2] | binding result [3] | binding result [4] | binding result [5] | Binder | other results
– | – | – | – | CLAVEEVSL (Synthetic peptide) [ΔNPM1 peptide CLAVEEVSL] | binding result [1]: binds
binds | binds | – | – | CLAVEEVSLRK (Synthetic peptide) [ΔNPM1 peptide CLAVEEVSLRK] | –
– | – | no recognition | recognises | dNPM1-A*11:01 TCR (clone 6F11) (TCR, V domains shown) Valpha: AQSVTQLDSQVPVFEEAPVELRCNYSSSVSVYLFWYVQYPNQGLQLLLKYLSGSTLVKGINGFEAEFNKSQTSFHLRKPSVHISDTAEYFCAVSPAGNQFYFGTGTSLTVIP Vbeta: GAGVSQSPRYKVTKRGQDVALRCDPISGHVSLYWYRQALGQGPEFLTYFNYEAQQDKSGLPNDRFSAERPEGSISTLTIQRTEQRDSAMYRCASSLGSNQPQHFGDGTRLSIL | –
– | – | – | – | dNPM1-A*03:01 TCR (clone 31.3.F1) (TCR, V domains shown) Valpha: QKEVEQNSGPLSVPEGAIASLNCTYSDRGSQSFFWYRQYSGKSPELIMSIYSNGDKEDGRFTAQLNKASQYVSLLIRDSQPSDSATYLCALSGGGQNFVFGPGTRLSVLP Vbeta: EAGVTQFPSHSVIEKGQTVTLRCDPISGHDNLYWYRRVMGKEIKFLLHFVKESKQDESGMPNNRFLAERTGGTYSTLKVQPAELEDSGVYFCASSQGSGFRHFGDGTRLSIL | binding result [6]: no recognition; binding result [7]: recognises; binding result [8]: no recognition
– | – | no recognition | recognises | dNPM1-A*11:01 TCR (clone 26.2.D6) (TCR, V domains shown) Valpha: GEDVEQSLFLSVREGDSSVINCTYTDSSSTYLYWYKQEPGAGLQLLTYIFSNMDMKQDQRLTVLLNKKDKHLSLRIADTQTGDSAIYFCAESKGQNFVFGPGTRLSVLP Vbeta: DGGITQSPKYLFRKEGQNVTLSCEQNLNHDAMYWYRQDPGQGLRLIYYSHIVNDFQKGDIAEGYSVSREKKESFPLTVTSAQKNPTAFYLCASTTWGTGGHEQYFGPGTRLTVT | –
binds | binds | – | – | AVEEVSLRK (Eluted natural ligand in the ligandome work) [ΔNPM1 peptide AVEEVSLRK] | binding result [9]: binds
